Source: PMC10786891, “Massively parallel profiling of RNA-targeting CRISPR-Cas13d”
Residue numbers refer to the chain shown, from its start. In names and notes the source's numbering stands.

T1: EsCas13d, nuclease-dead (Eubacterium siraeum, UniProt B0MS50, R295A;H300A;R849A;H854A)
T1 sequence: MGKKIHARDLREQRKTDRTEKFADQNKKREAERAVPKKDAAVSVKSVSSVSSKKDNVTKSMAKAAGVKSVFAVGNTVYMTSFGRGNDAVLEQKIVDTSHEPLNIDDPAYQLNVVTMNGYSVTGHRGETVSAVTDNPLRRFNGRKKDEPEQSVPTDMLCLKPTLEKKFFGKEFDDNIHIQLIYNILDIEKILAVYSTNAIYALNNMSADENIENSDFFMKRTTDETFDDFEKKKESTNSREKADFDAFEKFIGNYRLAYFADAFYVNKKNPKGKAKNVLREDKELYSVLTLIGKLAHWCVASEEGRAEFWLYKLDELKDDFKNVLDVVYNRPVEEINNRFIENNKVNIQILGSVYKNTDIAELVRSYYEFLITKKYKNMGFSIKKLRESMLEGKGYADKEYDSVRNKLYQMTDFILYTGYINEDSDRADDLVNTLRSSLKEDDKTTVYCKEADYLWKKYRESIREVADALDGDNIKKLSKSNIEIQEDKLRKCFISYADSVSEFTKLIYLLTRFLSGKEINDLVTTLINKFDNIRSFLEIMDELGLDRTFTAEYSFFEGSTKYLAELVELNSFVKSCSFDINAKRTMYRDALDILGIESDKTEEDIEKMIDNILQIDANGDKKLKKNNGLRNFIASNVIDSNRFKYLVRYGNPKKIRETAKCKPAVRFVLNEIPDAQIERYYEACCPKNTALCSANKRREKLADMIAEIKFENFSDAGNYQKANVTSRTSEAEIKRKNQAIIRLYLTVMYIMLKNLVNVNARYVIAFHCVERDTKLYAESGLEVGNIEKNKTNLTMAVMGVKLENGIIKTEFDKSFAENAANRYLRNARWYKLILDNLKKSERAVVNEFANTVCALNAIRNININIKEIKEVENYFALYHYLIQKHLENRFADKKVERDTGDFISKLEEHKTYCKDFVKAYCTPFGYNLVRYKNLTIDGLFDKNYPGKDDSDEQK

B1: target 1 U10A,A20U (mixed)
RNA 1: CACCCGUGCAAAAAUGCAGGGGUCUAAAACUGAGCGGAUAACCUCUCUAUGG
RNA 2: GGGAAUGGAUCCACAUCUACGAAUUCGUACCUUAGAGAGGUAAUCCGCUCACCGAGAUCGGAAGAGCACACGU
B2: target 1 del15 (mixed)
RNA 1: B1 RNA 1
RNA 2: GGGAAUGGAUCCACAUCUACGAAUUCGUACCAUAGAAGGUUAUCCGCUCACCGAGAUCGGAAGAGCACACGU
B3: target 1 insU 3' of 21,insU 3' of 5 (mixed)
RNA 1: B1 RNA 1
RNA 2: GGGAAUGGAUCCACAUCUACGAAUUCGUACCUAUAGAGAGGUUAUCCGUCUCACCGAGAUCGGAAGAGCACACGU
B4: target 1 A9C,G12C (mixed)
RNA 1: B1 RNA 1
RNA 2: B1 RNA 2 with U32A, G40C, A42U, A43C
B5: target 1 insA 3' of 19,insA 3' of 19 (mixed)
RNA 1: B1 RNA 1
RNA 2: GGGAAUGGAUCCACAUCUACGAAUUCGUACCAUAAAGAGAGGUUAUCCGCUCACCGAGAUCGGAAGAGCACACGU
B6: target 1 insC 3' of 8,insU 3' of 6 (mixed)
RNA 1: B1 RNA 1
RNA 2: B5 RNA 2 with A35G, A40G, G41U, G42U, U43A, A45C, U46C, C48U
B7: target 1 A9U,G17C (mixed)
RNA 1: B1 RNA 1
RNA 2: B1 RNA 2 with U32A, G35C, A42U, A43U
B8: target 1 insA 3' of 8,insG 3' of 8 (mixed)
RNA 1: B1 RNA 1
RNA 2: B5 RNA 2 with A35G, A40G, G41U, G42U, U43A, U46G
B9: target 1 insU 3' of 20,insU 3' of 15 (mixed)
RNA 1: B1 RNA 1
RNA 2: B5 RNA 2 with A34U, A36G, G37A, A38G, G39U
B10: target 1 insA 3' of 11,insA 3' of 7 (mixed)
RNA 1: B1 RNA 1
RNA 2: B5 RNA 2 with A35G, A40G, G41U, G42A, U44A, A45U, U46C, C47A
B11: target 1 C2U,C7G (mixed)
RNA 1: B1 RNA 1
RNA 2: B1 RNA 2 with U32A, A42U, C45G, C50U
B12: target 1 insU 3' of 20,insA 3' of 12 (mixed)
RNA 1: B1 RNA 1
RNA 2: B5 RNA 2 with A34U, A36G, G37A, A38G, G39A, A40G, G42A
B13: target 1 A9C,U10A (mixed)
RNA 1: B1 RNA 1
RNA 2: B1 RNA 2 with U32A, A43C
B14: target 1 insU 3' of 13,insU 3' of 4 (mixed)
RNA 1: B1 RNA 1
RNA 2: B5 RNA 2 with A35G, A40U, G42U, U44A, A45U, U46C, C48G, G49C, C50U
B15: target 1 insC 3' of 22,insG 3' of 3 (mixed)
RNA 1: B1 RNA 1
RNA 2: B3 RNA 2 with U32C, U49C, C50U, U51G
B16: target 1 insU 3' of 15,insA 3' of 10 (mixed)
RNA 1: B1 RNA 1
RNA 2: B5 RNA 2 with A35G, A38U, G39A, A40G, G42U, U44A
B17: target 1 insC 3' of 15,insC 3' of 11 (mixed)
RNA 1: B1 RNA 1
RNA 2: B5 RNA 2 with A35G, A38C, G39A, A40G, G42U, U43C
B18: target 1 insU 3' of 15,insA 3' of 6 (mixed)
RNA 1: B1 RNA 1
RNA 2: B5 RNA 2 with A35G, A38U, G39A, A40G, G42U, U44A, A45U, U46C, C48A
B19: target 1 insU 3' of 4,insC 3' of 1 (mixed)
RNA 1: B1 RNA 1
RNA 2: GGGAAUGGAUCCACAUCUACGAAUUCGUACCAUAGAGAGGUUAUCCGCUUCACCCGAGAUCGGAAGAGCACACGU
B20: target 1 insG 3' of 19,insU 3' of 12 (mixed)
RNA 1: B1 RNA 1
RNA 2: B5 RNA 2 with A34G, A36G, G37A, A38G, G39A, A40G, G42U
B21: target 1 insU 3' of 6,insA 3' of 6 (mixed)
RNA 1: B1 RNA 1
RNA 2: B19 RNA 2 with G47U, C48A, U49G, U50C, C51U, A52C, C53A
B22: target 1 U10A,G12U (mixed)
RNA 1: B1 RNA 1
RNA 2: B1 RNA 2 with U32A, G40U
B23: target 1 U3C,C4A (mixed)
RNA 1: B1 RNA 1
RNA 2: B1 RNA 2 with U32A, A42U, C48A, U49C
B24: target 1 C2G,C21A (mixed)
RNA 1: B1 RNA 1
RNA 2: B1 RNA 2 with C31A, U32A, A42U, C50G
B25: target 1 G5U,G15A (mixed)
RNA 1: B1 RNA 1
RNA 2: B1 RNA 2 with U32A, G37A, A42U, G47U
B26: target 1 insU 3' of 21,insA 3' of 5 (mixed)
RNA 1: B1 RNA 1
RNA 2: B3 RNA 2 with U49A
B27: target 1 del8,del18 (mixed)
RNA 1: B1 RNA 1
RNA 2: GGGAAUGGAUCCACAUCUACGAAUUCGUACCAUGAGAGGUUACCGCUCACCGAGAUCGGAAGAGCACACGU
B28: target 1 insA 3' of 19,insG 3' of 19 (mixed)
RNA 1: B1 RNA 1
RNA 2: B5 RNA 2 with A35G
B29: target 1 insC 3' of 20,insC 3' of 8 (mixed)
RNA 1: B1 RNA 1
RNA 2: B3 RNA 2 with U32A, A33C, G48C, U49G
B30: target 1 C4G,G5A (mixed)
RNA 1: B1 RNA 1
RNA 2: B1 RNA 2 with U32A, A42U, G47A, C48G
B31: target 1 U10C,G15A (mixed)
RNA 1: B1 RNA 1
RNA 2: B1 RNA 2 with U32A, G37A, A42C
B32: target 1 insG 3' of 3,insU 3' of 2 (mixed)
RNA 1: B1 RNA 1
RNA 2: B19 RNA 2 with U50G, A52U, C53A
B33: target 1 insC 3' of 19,insA 3' of 7 (mixed)
RNA 1: B1 RNA 1
RNA 2: B3 RNA 2 with U32A, A33U, U34C, C47A, G48C, U49G
B34: target 1 A1G,G15C (mixed)
RNA 1: B1 RNA 1
RNA 2: B1 RNA 2 with U32A, G37C, A42U, A51G

target: T1, EsCas13d, nuclease-dead; assay: crRNA (strand 1, pre-loaded); Mg2+; 40 mM Tris-HCl pH 7.5, 150 mM NaCl, 6 mM MgCl2, 1 mM DTT, 0.1% Tween-20, 0.2 mg/ml BSA; 25 C; 10 min per concentration, then washed; conditions: tags: His6-TwinStrep-SUMO cleaved; N-terminal SNAP kept (SNAP-Surface 488); label: 3' end held by stalled T7 RNA polymerase

**Q.** With B1 as the binder, how does the Kd read?
**A.** The Kd was 87 ± 13 nM.

**Q.** B2 was tested. Which Kd did it give?
**A.** The Kd was 8.96 ± 0.33 nM.

**Q.** For B3, which Kd is on record?
**A.** The Kd was 34 ± 7 nM.

**Q.** For B4, which Kd is on record?
**A.** The Kd was 23.1 ± 2.1 nM.

**Q.** B5 was tested. Which Kd did it give?
**A.** The Kd was 22.1 ± 2.4 nM.

**Q.** Which Kd does the source give for B6 here?
**A.** The Kd was 21.1 ± 1.5 nM.

**Q.** How did the Kd turn out when B7 was run?
**A.** The Kd was about 90 nM.

**Q.** Which Kd does the source give for B8 here?
**A.** Its Kd is 33.1 ± 2.6 nM.

**Q.** How did the Kd turn out when B9 was run?
**A.** The Kd was 19.1 ± 1.6 nM.

**Q.** With B10 as the binder, how does the Kd read?
**A.** Its Kd is 14.3 ± 0.7 nM.

**Q.** B11 was tested. Which Kd did it give?
**A.** The Kd was 8.54 ± 0.22 nM.

**Q.** With B12 as the binder, how does the Kd read?
**A.** The Kd was 33.3 ± 2.5 nM.

**Q.** Which Kd does the source give for B13 here?
**A.** Its Kd is 13.9 ± 0.8 nM.

**Q.** How did the Kd turn out when B14 was run?
**A.** Its Kd is 21 ± 2.6 nM.

**Q.** For B15, which Kd is on record?
**A.** The Kd was 11 ± 0.7 nM.

**Q.** B16 was tested. Which Kd did it give?
**A.** The Kd was 20.2 ± 1.1 nM.

**Q.** How did the Kd turn out when B17 was run?
**A.** Its Kd is 36.9 ± 3.4 nM.

**Q.** With B18 as the binder, how does the Kd read?
**A.** The Kd was 21.4 ± 2 nM.

**Q.** Which Kd does the source give for B19 here?
**A.** Its Kd is 16.8 ± 1.8 nM.

**Q.** Which Kd does the source give for B20 here?
**A.** Its Kd is 48 ± 5 nM.

**Q.** With B21 as the binder, how does the Kd read?
**A.** The Kd was 13.8 ± 1.3 nM.

**Q.** For B22, which Kd is on record?
**A.** Its Kd is 8.6 ± 0.8 nM.

**Q.** Which Kd does the source give for B23 here?
**A.** The Kd was 12.1 ± 1.2 nM.

**Q.** B24 was tested. Which Kd did it give?
**A.** Its Kd is 36 ± 8 nM.

**Q.** With B25 as the binder, how does the Kd read?
**A.** Its Kd is 16.5 ± 1.3 nM.

**Q.** Which Kd does the source give for B26 here?
**A.** Its Kd is 28 ± 6 nM.

**Q.** How did the Kd turn out when B27 was run?
**A.** Its Kd is 75 ± 10 nM.

**Q.** B28 was tested. Which Kd did it give?
**A.** The Kd was 8.62 ± 0.31 nM.

**Q.** With B29 as the binder, how does the Kd read?
**A.** The Kd was 15.2 ± 1.7 nM.

**Q.** How did the Kd turn out when B30 was run?
**A.** The Kd was 83 ± 17 nM.

**Q.** B31 was tested. Which Kd did it give?
**A.** The Kd was 31.3 ± 1.3 nM.

**Q.** With B32 as the binder, how does the Kd read?
**A.** The Kd was 10.1 ± 0.4 nM.

**Q.** For B33, which Kd is on record?
**A.** Its Kd is 26.6 ± 2.4 nM.

**Q.** How did the Kd turn out when B34 was run?
**A.** The Kd was 58 ± 9 nM.
